Publication PMC8478808 (Stroke, 2021)

Biological target: T1, recombinant mouse CD200R1 Fc chimera (mouse, UniProt Q9ES57 26-238)
T1 sequence (looked up): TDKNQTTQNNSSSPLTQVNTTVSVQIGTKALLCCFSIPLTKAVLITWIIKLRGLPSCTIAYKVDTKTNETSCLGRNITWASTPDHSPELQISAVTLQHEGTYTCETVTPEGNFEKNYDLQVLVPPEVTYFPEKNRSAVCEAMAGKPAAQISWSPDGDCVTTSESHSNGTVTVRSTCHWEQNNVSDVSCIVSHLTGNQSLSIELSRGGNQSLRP
Experiment: ELISA

binding result: binds
B1: biotinylated recombinant mouse CD200-Fc Chimera (carrier-free) (Fc fusion, UniProt O54901 31-232, looked up)
chain: QVEVVTQDERKALHTTASLRCSLKTSQEPLIVTWQKKKAVSPENMVTYSKTHGVVIQPAYKDRINVTELGLWNSSITFWNTTLEDEGCYMCLFNTFGSQKVSGTACLTLYVQPIVHLHYNYFEDHLNITCSATARPAPAISWKGTGTGIENSTESHFHSNGTTSVTSILRVKDPKTQVGKEVICQVLYLGNVIDYKQSLDKG
modifications: biotin (biotinylated; site not stated)
